Data on nine sequences can be found in the supplement of paper PMC5998384.

Data set [1] deals with HeLa Kyoto. Put plainly: solubility in G1/S (NP-40 vs SDS abundance) (log2 ratio); higher = more soluble. As to conditions: cell cycle stage: G1/S.
In data set [2] the test system is HeLa Kyoto. The data set can be described thus: melting temperature (median over replicates), in situ; higher = more thermally stable.
Data set [3] relates to HeLa Kyoto. The data set can be described thus: thermal stability score vs G1/S (z-score of summed log2 fold changes over temperatures); higher = more thermally stable than in G1/S.
The test system of data set [4] is HeLa Kyoto. Put plainly: solubility change mitosis vs G1/S (difference of NP-40 vs SDS log2 ratios) (log2 ratio difference); higher = more soluble in mitosis.
Setting [5] is: cell cycle stage: early G1 (4.5 h after nocodazole release).
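For melting temperature (median over replicates), in situ in this document: HeLa Kyoto cells synchronized by double thymidine or nocodazole block, proteins quantified by TMT10plex mass spectrometry, three independent biological replicates.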
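For solubility change mitosis vs G1/S (difference of NP-40 vs SDS log2 ratios) in this document: synchronized HeLa Kyoto cells (double thymidine block for G1/S, nocodazole release for mitosis), protein amounts in NP-40 versus SDS lysates quantified by mass spectrometry, three biological replicates.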
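For solubility in G1/S (NP-40 vs SDS abundance) in this document: HeLa Kyoto cells arrested at G1/S by double thymidine block, proteins quantified by TMT10plex mass spectrometry in mild NP-40 versus SDS extracts, three biological replicates.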
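For thermal stability score vs G1/S (z-score of summed log2 fold changes over temperatures) in this document: synchronized HeLa Kyoto cells, proteins quantified by TMT10plex mass spectrometry, three biological replicates, mitosis taken 0.5 h after nocodazole release, G1/S directly after double thymidine block.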

With “MELQPPEASIAVVSIPRQLPGSHSEAGVQGLSAGDDSELGSHCVAQTGLELLASGDPLPSASQNAEMIETGSDCVTQAGLQLLASSDPPALASKNAEVTGTMSQDTEVDMKEVELNELEPEKQPMNAASGAAMSLAGAEKNGLVKIKVAEDEAEAAAAAKFTGLSKEELLKVAGSPGWVRTRWALLLLFWLGWLGMLAGAVVIIVRAPRCRELPAQKWWHTGALYRIGDLQAFQGHGAGNLAGLKGRLDYLSSLKVKGLVLGPIHKNQKDDVAQTDLLQIDPNFGSKEDFDSLLQSAKKKSIRVILDLTPNYRGENSWFSTQVDTVATKVKDALEFWLQAGVDGFQVRDIENLKDASSFLAEWQNITKGFSEDRLLIAGTNSSDLQQILSLLESNKDLLLTSSYLSDSGSTGEHTKSLVTQYLNATGNRWCSWSLSQARLLTSFLPAQLLRLYQLMLFTLPGTPVFSYGDEIGLDAAALPGQPMEAPVMLWDESSFPDIPGAVSANMTVKGQSEDPGSLLSLFRRLSDQRSKERSLLHGDFHAFSAGPGLFSYIRHWDQNERFLVVLNFGDVGLSAGLQASDLPASASLPAKADLLLSTQPGREEGSPLELERLKLEPHEGLLLRFPYAA [SLC3A2]”, the “solubility in G1/S (log2)” value in the data set on HeLa Kyoto [1] came to 0.345. In addition, the values for the melting temperature in the data set with HeLa Kyoto [2] (cell cycle stage: G1/S) and in the data set on HeLa Kyoto [2] (cell cycle stage: mitosis) were 59.8 °C and 60.5 °C, respectively. Also, the thermal stability score in the data set with HeLa Kyoto [3] (setting [5]) was -2.05; with HeLa Kyoto [3] (cell cycle stage: mitosis) it was -1.32. Further, in the data set with HeLa Kyoto [4], the “solubility change mitosis (log2)” value is -0.0187.
Take “MELRVGNKYRLGRKIGSGSFGDIYLGANIASGEEVAIKLECVKTKHPQLHIESKFYKMMQGGVGIPSIKWCGAEGDYNVMVMELLGPSLEDLFNFCSRKFSLKTVLLLADQMISRIEYIHSKNFIHRDVKPDNFLMGLGKKGNLVYIIDFGLAKKYRDARTHQHIPYRENKNLTGTARYASINTHLGIEQSRRDDLESLGYVLMYFNLGSLPWQGLKAATKRQKYERISEKKMSTPIEVLCKGYPSEFSTYLNFCRSLRFDDKPDYSYLRQLFRNLFHRQGFSYDYVFDWNMLKFGAARNPEDVDRERREHEREERMGQLRGSATRALPPGPPTGATANRLRSAAEPVASTPASRIQPAGNTSPRAISRVDRERKVSMRLHRGAPANVSSSDLTGRQEVSRIPASQTSVPFDHLGK [CSNK1E]”: the “solubility in G1/S (log2)” value in the data set with HeLa Kyoto [1] was -0.212. The melting temperature with HeLa Kyoto [2] (cell cycle stage: G1/S) was 49.7 °C; in the data set with HeLa Kyoto [2] (cell cycle stage: mitosis), 49 °C. For the same sequence, the thermal stability score in the data set with HeLa Kyoto [3] (setting [5]) worked out at 0.572; in the data set with HeLa Kyoto [3] (cell cycle stage: mitosis), 0.264. Besides, the “solubility change mitosis (log2)” value in the data set on HeLa Kyoto [4] came to 0.102.
In the case of “MELSAVGERVFAAEALLKRRIRKGRMEYLVKWKGWSQKYSTWEPEENILDARLLAAFEEREREMELYGPKKRGPKPKTFLLKAQAKAKAKTYEFRSDSARGIRIPYPGRSPQDLASTSRAREGLRNMGLSPPASSTSTSSTCRAEAPRDRDRDRDRDRERDRERERERERERERERERERGTSRVDDKPSSPGDSSKKRGPKPRKELPDPSQRPLGEPSAGLGEYLKGRKLDDTPSGAGKFPAGHSVIQLARRQDSDLVQCGVTSPSSAEATGKLAVDTFPARVIKHRAAFLEAKGQGALDPNGTRVRHGSGPPSSGGGLYRDMGAQGGRPSLIARIPVARILGDPEEESWSPSLTNLEKVVVTDVTSNFLTVTIKESNTDQGFFKEKR [CBX8]”, in the data set on HeLa Kyoto [1], the “solubility in G1/S (log2)” value was -0.615. Moreover, the melting temperature in the data set with HeLa Kyoto [2] (cell cycle stage: G1/S) stood at 46.1 °C; in the data set on HeLa Kyoto [2] (cell cycle stage: mitosis), 49.5 °C. In addition, the thermal stability score in the data set on HeLa Kyoto [3] (setting [5]) is 2.83; in the data set on HeLa Kyoto [3] (cell cycle stage: mitosis) it was 5.27. Besides, in the data set with HeLa Kyoto [4], the “solubility change mitosis (log2)” value worked out at 0.612.
As for “MENGYTYEDYKNTAEWLLSHTKHRPQVAIICGSGLGGLTDKLTQAQIFDYGEIPNFPRSTVPGHAGRLVFGFLNGRACVMMQGRFHMYEGYPLWKVTFPVRVFHLLGVDTLVVTNAAGGLNPKFEVGDIMLIRDHINLPGFSGQNPLRGPNDERFGDRFPAMSDAYDRTMRQRALSTWKQMGEQRELQEGTYVMVAGPSFETVAECRVLQKLGADAVGMSTVPEVIVARHCGLRVFGFSLITNKVIMDYESLEKANHEEVLAAGKQAAQKLEQFVSILMASIPLPDKAS [PNP]”, in the data set on HeLa Kyoto [1], the “solubility in G1/S (log2)” value came to 0.301. Also, the figures for the melting temperature in the data set on HeLa Kyoto [2] (cell cycle stage: G1/S) and in the data set with HeLa Kyoto [2] (cell cycle stage: mitosis) were 60.3 °C and 60.2 °C, respectively. Moreover, the thermal stability score with HeLa Kyoto [3] (setting [5]) is -0.982; with HeLa Kyoto [3] (cell cycle stage: mitosis), -1.39. For the same sequence, the “solubility change mitosis (log2)” value in the data set with HeLa Kyoto [4] was -0.144.
Turning to “MENSQLCKLFIGGLNVQTSESGLRGHFEAFGTLTDCVVVVNPQTKRSRCFGFVTYSNVEEADAAMAASPHAVDGNTVELKRAVSREDSARPGAHAKVKKLFVGGLKGDVAEGDLIEHFSQFGTVEKAEIIADKQSGKKRGFGFVYFQNHDAADKAAVVKFHPIQGHRVEVKKAVPKEDIYSGGGGGGSRSSRGGRGGRGRGGGRDQNGLSKGGGGGYNSYGGYGGGGGGGYNAYGGGGGGSSYGGSDYGNGFGGFGSYSQHQSSYGPMKSGGGGGGGGSSWGGRSNSGPYRGGYGGGGGYGGSSF [HNRNPA0]”, in the data set with HeLa Kyoto [1], the “solubility in G1/S (log2)” value was -0.218. In addition, the melting temperature with HeLa Kyoto [2] (cell cycle stage: G1/S) is 45.2 °C; with HeLa Kyoto [2] (cell cycle stage: mitosis), 47 °C. Besides, the thermal stability score is 3.72 with HeLa Kyoto [3] (setting [5]) and 12.8 in the data set with HeLa Kyoto [3] (cell cycle stage: mitosis). Moreover, in the data set with HeLa Kyoto [4], the “solubility change mitosis (log2)” value came out at 0.24.
For “MEPAVSEPMRDQVARTHLTEDTPKVNADIEKVNQNQAKRCTVIGGSGFLGQHMVEQLLARGYAVNVFDIQQGFDNPQVRFFLGDLCSRQDLYPALKGVNTVFHCASPPPSSNNKELFYRVNYIGTKNVIETCKEAGVQKLILTSSASVIFEGVDIKNGTEDLPYAMKPIDYYTETKILQERAVLGANDPEKNFLTTAIRPHGIFGPRDPQLVPILIEAARNGKMKFVIGNGKNLVDFTFVENVVHGHILAAEQLSRDSTLGGKAFHITNDEPIPFWTFLSRILTGLNYEAPKYHIPYWVAYYLALLLSLLVMVISPVIQLQPTFTPMRVALAGTFHYYSCERAKKAMGYQPLVTMDDAMERTVQSFRHLRRVK [NSDHL]”, in the data set on HeLa Kyoto [1], the “solubility in G1/S (log2)” value was -0.0523. Further, the melting temperature in the data set on HeLa Kyoto [2] (cell cycle stage: G1/S) came out at 53.1 °C; with HeLa Kyoto [2] (cell cycle stage: mitosis), 53 °C. The thermal stability score was 1.89 in the data set on HeLa Kyoto [3] (setting [5]) and 1.38 in the data set with HeLa Kyoto [3] (cell cycle stage: mitosis). Further, in the data set on HeLa Kyoto [4], the “solubility change mitosis (log2)” value is -0.127.
In the case of “MEPDIIRMYSSSPPPLDNGAEDDDDDEFGEFGGFSEVSPSGVGFVDFDTPDYTRPKEEFVPSNHFMPIHEFSENVDSLTSFKSIKNGNDKDITAELSAPVKGQSDVLLSTTSKEIISSEMLATSIDGMERPGNLNKVVEQRQNVGTLESFSPGDFRTNMNVVHQNKQLESCNGEKPPCLEILTNGFAVLETVNPQGTDDLDNVADSKGRKPLSTHSTEYNLDSVPSPAEEFADFATFSKKERIQLEEIECAVLNDREALTIRENNKINRVNELNSVKEVALGRSLDNKGDTDGEDQVCVSEISIVTNRGFSVEKQGLPTLQQDEFLQSGVQSKAWSLVDSADNSEAIRREQCKTEEKLDLLTSKCAHLCMDSVKTSDDEVGSPKEESRKFTNFQSPNIDPTEENDLDDSLSVKNGDSSNDFVTCNDINEDDFGDFGDFGSASGSTPPFVTGTQDSMSDATFEESSEHFPHFSEPGDDFGEFGDINAVSCQEETILTKSDLKQTSDNLSEECQLARKSSGTGTEPVAKLKNGQEGEIGHFDSVPNIQDDCNGFQDSDDFADFSSAGPSQVVDWNAFEDEQKDSCSWAAFGDQQATESHHRKEAWQSHRTDENIDTPGTPKTHSVPSATSKGAVASGHLQESATSVQTALLNRLERIFEACFPSILVPDAEEEVTSLKHLLETSTLPIKTREALPESGELLDVWTELQDIHDAHGLRYQWGGSHSNKKLLSSLGIDTRNILFTGNKKQPVIVPMYAAGLGMLEPTKEPLKPLSAAEKIASIGQTATMSPDMNTCTSDQFQESLPPVQFDWSSSGLTNPLDASGGSTLLNLDFFGPVDDSSSSSSTTIPGVDPELYELTTSKLEISTSSLKVTDAFARLMSTVEKTSTSTRKPKREEHLSEEAIKVIAGLPDLTFMHAKVLMFPATLTPSTSSQEKADG [AFTPH]”, the “solubility in G1/S (log2)” value in the data set on HeLa Kyoto [1] is -0.151. The values for the melting temperature in the data set on HeLa Kyoto [2] (cell cycle stage: G1/S) and with HeLa Kyoto [2] (cell cycle stage: mitosis) were 52 °C and 51.9 °C, respectively. Besides, the thermal stability score with HeLa Kyoto [3] (setting [5]) is -0.487; with HeLa Kyoto [3] (cell cycle stage: mitosis) it was -1.23. The “solubility change mitosis (log2)” value in the data set on HeLa Kyoto [4] is -0.029.
With “MEPFSCDTFVALPPATVDNRIIFGKNSDRLYDEVQEVVYFPAVVHDNLGERLKCTYIEIDQVPETYAVVLSRPAWLWGAEMGANEHGVCIGNEAVWGREEVCDEEALLGMDLVRLGLERADTAEKALNVIVDLLEKYGQGGNCTEGRMVFSYHNSFLIADRNEAWILETAGKYWAAEKVQEGVRNISNQLSITTKIAREHPDMRNYAKRKGWWDGKKEFDFAAAYSYLDTAKMMTSSGRYCEGYKLLNKHKGNITFETMMEILRDKPSGINMEGEFLTTASMVSILPQDSSLPCIHFFTGTPDPERSVFKPFIFVPHISQLLDTSSPTFELEDLVKKKSHFKPDRRHPLYQKHQQALEVVNNNEEKAKIMLDNMRKLEKELFREMESILQNKHLDVEKIVNLFPQCTKDEIQIYQSNLSVKVSS [SCRN3]”, in the data set on HeLa Kyoto [1], the “solubility in G1/S (log2)” value came to 0.271. The melting temperature in the data set with HeLa Kyoto [2] (cell cycle stage: G1/S) came to 52.9 °C; in the data set on HeLa Kyoto [2] (cell cycle stage: mitosis), 52.3 °C. Further, the figures for the thermal stability score in the data set with HeLa Kyoto [3] (setting [5]) and with HeLa Kyoto [3] (cell cycle stage: mitosis) were -0.926 and -0.525, respectively. In addition, the “solubility change mitosis (log2)” value in the data set on HeLa Kyoto [4] was -0.25.
“MEPGRRGAAALLALLCVACALRAGRAQYERYSFRSFPRDELMPLESAYRHALDKYSGEHWAESVGYLEISLRLHRLLRDSEAFCHRNCSAAPQPEPAAGLASYPELRLFGGLLRRAHCLKRCKQGLPAFRQSQPSREVLADFQRREPYKFLQFAYFKANNLPKAIAAAHTFLLKHPDDEMMKRNMAYYKSLPGAEDYIKDLETKSYESLFIRAVRAYNGENWRTSITDMELALPDFFKAFYECLAACEGSREIKDFKDFYLSIADHYVEVLECKIQCEENLTPVIGGYPVEKFVATMYHYLQFAYYKLNDLKNAAPCAVSYLLFDQNDKVMQQNLVYYQYHRDTWGLSDEHFQPRPEAVQFFNVTTLQKELYDFAKENIMDDDEGEVVEYVDDLLELEETS [CRTAP]”: in the data set with HeLa Kyoto [1], the “solubility in G1/S (log2)” value was found to be 0.35. The melting temperature was found to be 53.3 °C with HeLa Kyoto [2] (cell cycle stage: G1/S) and 54.8 °C with HeLa Kyoto [2] (cell cycle stage: mitosis). The thermal stability score in the data set on HeLa Kyoto [3] (setting [5]) was 3.61; in the data set with HeLa Kyoto [3] (cell cycle stage: mitosis), 4.97. Besides, the “solubility change mitosis (log2)” value in the data set with HeLa Kyoto [4] is -0.0925.
